This experiment concerns the target 1G4 TCRαβ with TCRβ T130C/H172C, on J8Zb2m-α-β- reporter T cells (human).

Regarding “iTAg tetramer/APC – HLA-A*02:01 NY-ESO-1 (…) (from UniProt P61769 21-119) (peptide-MHC)”, the peak NFAT reporter response to HLA–antigen tetramers relative to wild type was 50 % reduction.

These data come from publication PMC12708868.
